The results in this text go back to US20020160955A1 (published 2002).

In assay [1] the target is T1, human IGFBP-1 (human, UniProt P08833 26-259).
T1 construct: secreted recombinant protein purified from conditioned medium
T1 sequence (looked up): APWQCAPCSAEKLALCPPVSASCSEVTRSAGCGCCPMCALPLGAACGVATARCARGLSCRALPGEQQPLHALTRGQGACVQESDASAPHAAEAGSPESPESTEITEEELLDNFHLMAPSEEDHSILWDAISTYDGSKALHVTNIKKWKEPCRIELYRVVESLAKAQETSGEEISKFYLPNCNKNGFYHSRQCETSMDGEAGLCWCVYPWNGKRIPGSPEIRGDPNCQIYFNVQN
The assay is described as follows: competitive phage ELISA. The protocol: (§1) E. coli cells (XL1-Blue, Stratagene) freshly transformed with phagemid vector were grown overnight in 5 mL 2YT medium (Sambrook et al, supra) in the presence of M13-VCS helper phage (Stratagene). Phage particles were harvested and resuspended in PBS buffer as described in Lowman, H. B., “Phage Display of Peptide Libraries on Protein Scaffolds,” in Cabilly, S. (ed.), Combinatorial Peptide Library Protocols (Humana Press Inc.: Totowa, N.J., 1998), pp. 249-264. Then phage concentrations were normalized to yield a maximal ELISA signal of 0.2-0.4 for each mutant (Lowman, in Cabilly, S. (ed.), supra). Threefold serial dilutions of soluble competitor were prepared on non-absorbent microtiter plates (Nunc, F, 96 wells) with binding buffer (0.5% TWEEN™ 20/PBS) containing phage at the previously-determined concentrations. […] After blocking, the plates containing immobilized target were washed with 0.05% TWEEN™/PBS buffer and subsequently incubated with 80 μl/well of the premixed phage-competitor solutions for 1 hour at room temperature. After washing, bound phage was detected with 80 μl/well of a solution containing a primary rabbit anti-phage polyclonal antibody and a secondary goat anti-rabbit monoclonal antibody-horseradish peroxidase conjugate in 0.5% TWEEN 20™/PBS. o-Phenylenediamine (Sigma) and tetramethylbenzidine (Kirkegaard and Perry) were used as chromogenic substrates, resulting in product detection at 492 and 450 nm, respectively. IC₅₀ values were determined by fitting the binding data to a generic saturation curve (Lowman, in Cabilly, S. (ed.), supra). […] Numbers in Table I represent mean +standard deviation of individually assessed IC₅₀ values.
For orientation: ELISA stands for enzyme-linked immunosorbent assay.

Assay [2] has as its target T2, recombinant human IGFBP-3 (human, UniProt P17936 28-291).
T2 construct: secreted recombinant protein purified from conditioned medium
The assay is described as follows: competitive phage ELISA. As for the experimental part: as §1

The target in assay [3] is T2, recombinant human IGFBP-3. Briefly: competitive phage ELISA: soluble IGFBP-3 against IGFBP-3-coated wells. The protocol: The plates were then blocked with 0.5% TWEEN 20™/PBS (also used as binding buffer) for 2 hours at room temperature (proteinaceous blocking agents like bovine serum albumin were avoided to prevent potential IGF or IGFBP contamination). E. coli cells (XL1-Blue, Stratagene) freshly transformed with phagemid vector were grown overnight in 5 mL 2YT medium (Sambrook et al, supra) in the presence of M13-VCS helper phage (Stratagene). Phage particles were harvested and resuspended in PBS buffer as described in Lowman, H. B., “Phage Display of Peptide Libraries on Protein Scaffolds,” in Cabilly, S. (ed.), Combinatorial Peptide Library Protocols (Humana Press Inc.: Totowa, N.J., 1998), pp. 249-264. Then phage concentrations were normalized to yield a maximal ELISA signal of 0.2-0.4 for each mutant (Lowman, in Cabilly, S. (ed.), supra). Threefold serial dilutions of soluble competitor were prepared on non-absorbent microtiter plates (Nunc, F, 96 wells) with binding buffer (0.5% TWEEN™ 20/PBS) containing phage at the previously-determined concentrations.

Positions count from the first letter of the chain named. Names may count otherwise.

T2 sequence (P17936 28-291 limits assumed): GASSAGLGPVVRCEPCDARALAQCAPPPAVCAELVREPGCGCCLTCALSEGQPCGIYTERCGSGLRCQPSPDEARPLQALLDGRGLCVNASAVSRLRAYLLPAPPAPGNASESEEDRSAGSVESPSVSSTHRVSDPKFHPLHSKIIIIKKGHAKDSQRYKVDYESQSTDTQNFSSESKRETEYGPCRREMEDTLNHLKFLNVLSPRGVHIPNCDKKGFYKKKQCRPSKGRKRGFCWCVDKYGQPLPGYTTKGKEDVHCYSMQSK

B1: IGF-I D12A (G1S-A70V background) displayed on phage (ligand, not shown: large carriers)
chain: SPETLCGAELVAALQFVCGDRGFYFNKPTGYGSSSRRAPQTGIVDECCFRSCDLRRLEMYCAPLKPAKSV
notes: monovalent M13 phage display
In the case of B1, the binding result in assay [1] is given as “binds”.

B2: IGF-I S35A (G1S-A70V background) displayed on phage (ligand, not shown: large carriers)
chain: B1 chain with A12D, S35A
notes: monovalent M13 phage display
Take B2: in assay [2], the binding result is “binds”.

B3: IGF-I T41A (G1S-A70V background) displayed on phage (ligand, not shown: large carriers)
chain: B1 chain with A12D, T41A
notes: monovalent M13 phage display
Take B3: the binding result in assay [2] was “binds”.

B4: IGF-I D45A (G1S-A70V background) displayed on phage (ligand, not shown: large carriers)
chain: B1 chain with A12D, D45A
notes: monovalent M13 phage display
Turning to B4, the binding result in assay [1] is given as “binds”.

B5: IGF-I F49A (G1S-A70V background) displayed on phage (ligand, not shown: large carriers; small tags and cut ends)
chain: B1 chain with A12D, F49A
notes: monovalent M13 phage display; also called IGF-F49A phage
In the case of B5, the binding result in assay [3] is reported as “binds”.
